From PMC4460075, “ULK2 Ser 1027 Phosphorylation by PKA Regulates Its Nuclear Localization Occurring through Karyopherin Beta 2 Recognition of a PY-NLS Motif” (PLoS ONE, 2015) come the findings set out here.

Where a chain is given by its changes, count along the chain named. Numbers in names are those of the source.

The target in the assay is T1, karyopherin beta 2 (Kapβ2), endogenous (human (endogenous in HEK293), UniProt Q92973 1-898).
T1 sequence (looked up): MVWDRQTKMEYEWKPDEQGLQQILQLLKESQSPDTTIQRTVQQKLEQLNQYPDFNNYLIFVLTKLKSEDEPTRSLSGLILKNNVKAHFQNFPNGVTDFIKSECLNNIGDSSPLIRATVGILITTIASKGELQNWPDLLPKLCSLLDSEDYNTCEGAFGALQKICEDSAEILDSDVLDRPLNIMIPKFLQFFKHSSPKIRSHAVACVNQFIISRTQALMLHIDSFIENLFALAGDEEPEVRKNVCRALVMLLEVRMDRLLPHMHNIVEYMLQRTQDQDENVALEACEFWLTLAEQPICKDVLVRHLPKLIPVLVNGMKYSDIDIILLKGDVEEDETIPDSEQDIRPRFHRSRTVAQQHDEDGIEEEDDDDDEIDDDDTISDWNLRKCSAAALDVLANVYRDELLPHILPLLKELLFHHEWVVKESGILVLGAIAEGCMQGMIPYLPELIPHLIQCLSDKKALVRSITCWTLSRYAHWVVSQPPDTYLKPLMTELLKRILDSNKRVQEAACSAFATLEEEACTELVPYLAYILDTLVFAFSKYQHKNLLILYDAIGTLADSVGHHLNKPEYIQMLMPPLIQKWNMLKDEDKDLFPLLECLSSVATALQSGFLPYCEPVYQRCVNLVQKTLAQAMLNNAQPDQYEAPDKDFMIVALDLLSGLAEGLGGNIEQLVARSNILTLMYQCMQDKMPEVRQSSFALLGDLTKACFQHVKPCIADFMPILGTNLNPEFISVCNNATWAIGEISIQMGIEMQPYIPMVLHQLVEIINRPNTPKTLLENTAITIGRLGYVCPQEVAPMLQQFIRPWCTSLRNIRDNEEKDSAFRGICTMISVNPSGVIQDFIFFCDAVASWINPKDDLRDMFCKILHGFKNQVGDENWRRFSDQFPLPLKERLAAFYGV
Nature of the assay: cell-based or functional assay.

B1: EGFP-ULK2 WT (natural protein, human, UniProt Q8IYT8 1-1036, looked up)
chain: MEVVGDFEYSKRDLVGHGAFAVVFRGRHRQKTDWEVAIKSINKKNLSKSQILLGKEIKILKELQHENIVALYDVQELPNSVFLVMEYCNGGDLADYLQAKGTLSEDTIRVFLHQIAAAMRILHSKGIIHRDLKPQNILLSYANRRKSSVSGIRIKIADFGFARYLHSNMMAATLCGSPMYMAPEVIMSQHYDAKADLWSIGTVIYQCLVGKPPFQANSPQDLRMFYEKNRSLMPSIPRETSPYLANLLLGLLQRNQKDRMDFEAFFSHPFLEQGPVKKSCPVPVPMYSGSVSGSSCGSSPSCRFASPPSLPDMQHIQEENLSSPPLGPPNYLQVSKDSASTSSKNSSCDTDDFVLVPHNISSDHSCDMPVGTAGRRASNEFLVCGGQCQPTVSPHSETAPIPVPTQIRNYQRIEQNLTSTASSGTNVHGSPRSAVVRRSNTSPMGFLRPGSCSPVPADTAQTVGRRLSTGSSRPYSPSPLVGTIPEQFSQCCCGHPQGHDSRSRNSSGSPVPQAQSPQSLLSGARLQSAPTLTDIYQNKQKLRKQHSDPVCPSHTGAGYSYSPQPSRPGSLGTSPTKHLGSSPRSSDWFFKTPLPTIIGSPTKTTAPFKIPKTQASSNLLALVTRHGPAEEQSKDGNEPRECAHCLLVQGSERQRAEQQSKAVFGRSVSTGKLSDQQGKTPICRHQGSTDSLNTERPMDIAPAGACGGVLAPPAGTAASSKAVLFTVGSPPHSAAAPTCTHMFLRTRTTSVGPSNSGGSLCAMSGRVCVGSPPGPGFGSSPPGAEAAPSLRYVPYGASPPSLEGLITFEAPELPEETLMEREHTDTLRHLNVMLMFTECVLDLTAMRGGNPELCTSAVSLYQIQESVVVDQISQLSKDWGRVEQLVLYMKAAQLLAASLHLAKAQIKSGKLSPSTAVKQVVKNLNERYKFCITMCKKLTEKLNRFFSDKQRFIDEINSVTAEKLIYNCAVEMVQSAALDEMFQQTEDIVYRYHKAALLLEGLSRILQDPADIENVHKYKCSIERRLSALCHSTATV
Regarding B1, the “nuclear-to-total fluorescence ratio (Fn/t) of EGFP-ULK2 WT in HEK293 cells, confocal microscopy (Fig 3D)” value was 44.5.

B2: Uncoordinated 51-like kinase 2 (ULK2), endogenous (natural protein, human (endogenous in HEK293), UniProt Q8IYT8 1-1036, looked up)
chain: B1 chain
Consider B2, for which the “nuclear-to-total fluorescence ratio (Fn/t) of endogenous ULK2 in FSK-treated HEK293 cells (normal DMEM-grown cells: 49.36+/−4.90), confocal microscopy (Fig 6Q)” value turned out to be 52.7 and the “nuclear-to-total fluorescence ratio (Fn/t) of endogenous ULK2 in H89-treated HEK293 cells (normal DMEM-grown cells: 49.36+/−4.90), confocal microscopy (Fig 6Q)” value worked out at 35.8.

B3: EGFP-ULK2 PY-NLS mutant (P794A) (natural protein, human, UniProt Q8IYT8 1-1036, looked up)
chain: B1 chain with P794A
For B3, the “nuclear-to-total fluorescence ratio (Fn/t) of the EGFP-ULK2 PY-NLS (P794A) mutant in HEK293 cells, confocal microscopy (Fig 3D)” value was found to be 17.1.

B4: EGFP-ULK2 P242A mutant (natural protein, human, UniProt Q8IYT8 1-1036, looked up)
chain: B1 chain with P242A
In the case of B4, the “nuclear-to-total fluorescence ratio (Fn/t) of the EGFP-ULK2 P242A mutant in HEK293 cells, confocal microscopy (Fig 3D)” value was determined as 67.2.
